Assay: in vivo
Set-up: species or system mice
Details: male, NODSCID 1L2RγKO, mouse, iv, total radioactivity

COc1ccc(CCCC(=O)NCC(=O)N[C@@H](CCCCNC(=O)CN2CCN(CC(=O)O)CCN(CC(=O)O)CCN(CC(=O)O)CC2)C(=O)NC[C@H]2CC[C@H](C(=O)N[C@@H](Cc3c4ccccc4cc4ccccc34)C(=O)NCCCC[C@H](NC(=O)N[C@@H](CCCC(=O)O)C(=O)O)C(=O)O)CC2)cc1 [177Lu-HTK03170, metal not drawn]
tissue uptake at 1 h (Adrenal glands uptake): 3.34 ± 0.45 %ID/g | tissue uptake at 4 h (Adrenal glands uptake): 1.78 ± 0.45 %ID/g | tissue uptake at 24 h (Adrenal glands uptake): 0.5 ± 0.16 %ID/g | tissue uptake at 72 h (Adrenal glands uptake): 0.27 ± 0.11 %ID/g | tissue uptake at 120 h (Adrenal glands uptake): 0.22 ± 0.18 %ID/g | tissue uptake at 1 h (Blood uptake): 16.9 ± 1.97 %ID/g | tissue uptake at 4 h (Blood uptake): 8.34 ± 1.67 %ID/g | tissue uptake at 24 h (Blood uptake): 0.59 ± 0.13 %ID/g | tissue uptake at 72 h (Blood uptake): 0.06 ± 0.02 %ID/g | tissue uptake at 120 h (Blood uptake): 0.02 ± 0.01 %ID/g | tissue uptake at 1 h (Bone uptake): 0.89 ± 0.27 %ID/g | tissue uptake at 4 h (Bone uptake): 0.45 ± 0.13 %ID/g | tissue uptake at 24 h (Bone uptake): 0.06 ± 0.04 %ID/g | tissue uptake at 72 h (Bone uptake): 0.03 ± 0.02 %ID/g | tissue uptake at 120 h (Bone uptake): 0.02 ± 0.01 %ID/g | tissue uptake at 1 h (Brain uptake): 0.23 ± 0.04 %ID/g | tissue uptake at 4 h (Brain uptake): 0.13 ± 0.03 %ID/g | tissue uptake at 24 h (Brain uptake): 0.02 ± 0.01 %ID/g | tissue uptake at 72 h (Brain uptake): 0.01 %ID/g | tissue uptake at 1 h (Fat uptake): 1.38 ± 0.45 %ID/g | tissue uptake at 4 h (Fat uptake): 0.6 ± 0.13 %ID/g | tissue uptake at 24 h (Fat uptake): 0.12 ± 0.04 %ID/g | tissue uptake at 72 h (Fat uptake): 0.04 ± 0.02 %ID/g | tissue uptake at 120 h (Fat uptake): 0.03 ± 0.03 %ID/g | tissue uptake at 1 h (Heart uptake): 3.6 ± 0.52 %ID/g | tissue uptake at 4 h (Heart uptake): 1.91 ± 0.4 %ID/g | tissue uptake at 24 h (Heart uptake): 0.26 ± 0.04 %ID/g | tissue uptake at 72 h (Heart uptake): 0.09 ± 0.03 %ID/g | tissue uptake at 120 h (Heart uptake): 0.04 ± 0.02 %ID/g | tissue uptake at 1 h (Intestine uptake): 1.19 ± 0.25 %ID/g | tissue uptake at 4 h (Intestine uptake): 0.61 ± 0.17 %ID/g | tissue uptake at 24 h (Intestine uptake): 0.18 ± 0.07 %ID/g | tissue uptake at 72 h (Intestine uptake): 0.14 ± 0.11 %ID/g | tissue uptake at 120 h (Intestine uptake): 0.04 ± 0.03 %ID/g | tissue uptake at 1 h (Kidneys uptake): 13.2 ± 1.87 %ID/g | tissue uptake at 4 h (Kidneys uptake): 9.23 ± 2.18 %ID/g | tissue uptake at 24 h (Kidneys uptake): 5.8 ± 1.24 %ID/g | tissue uptake at 72 h (Kidneys uptake): 2.56 ± 0.62 %ID/g | tissue uptake at 120 h (Kidneys uptake): 1.3 ± 0.55 %ID/g | tissue uptake at 1 h (Lacrimal uptake): 0.27 ± 0.08 %ID/g | tissue uptake at 4 h (Lacrimal uptake): 0.15 ± 0.07 %ID/g | tissue uptake at 24 h (Lacrimal uptake): 0.04 ± 0.03 %ID/g | tissue uptake at 72 h (Lacrimal uptake): 0.01 ± 0.01 %ID/g | tissue uptake at 1 h (Liver uptake): 2.67 ± 0.37 %ID/g | tissue uptake at 4 h (Liver uptake): 1.89 ± 0.69 %ID/g | tissue uptake at 24 h (Liver uptake): 0.69 ± 0.27 %ID/g | tissue uptake at 72 h (Liver uptake): 0.36 ± 0.13 %ID/g | tissue uptake at 120 h (Liver uptake): 0.23 ± 0.13 %ID/g | tissue uptake at 1 h (Lungs uptake): 8.06 ± 1.48 %ID/g | tissue uptake at 4 h (Lungs uptake): 4.35 ± 0.82 %ID/g | tissue uptake at 24 h (Lungs uptake): 0.72 ± 0.19 %ID/g | tissue uptake at 72 h (Lungs uptake): 0.18 ± 0.04 %ID/g | tissue uptake at 120 h (Lungs uptake): 0.06 ± 0.03 %ID/g | tissue uptake at 1 h (Muscle uptake): 1.15 ± 0.19 %ID/g | tissue uptake at 4 h (Muscle uptake): 0.58 ± 0.13 %ID/g | tissue uptake at 24 h (Muscle uptake): 0.08 ± 0.02 %ID/g | tissue uptake at 72 h (Muscle uptake): 0.02 ± 0.01 %ID/g | tissue uptake at 120 h (Muscle uptake): 0.01 ± 0.01 %ID/g | tissue uptake at 1 h (Pancreas uptake): 1.41 ± 0.31 %ID/g | tissue uptake at 4 h (Pancreas uptake): 0.74 ± 0.18 %ID/g | tissue uptake at 24 h (Pancreas uptake): 0.12 ± 0.03 %ID/g | tissue uptake at 72 h (Pancreas uptake): 0.04 ± 0.01 %ID/g | tissue uptake at 120 h (Pancreas uptake): 0.02 ± 0.02 %ID/g | tissue uptake at 1 h (Salivary uptake): 2.43 ± 0.33 %ID/g | tissue uptake at 4 h (Salivary uptake): 1.31 ± 0.3 %ID/g | tissue uptake at 24 h (Salivary uptake): 0.28 ± 0.04 %ID/g | tissue uptake at 72 h (Salivary uptake): 0.11 ± 0.03 %ID/g | tissue uptake at 120 h (Salivary uptake): 0.05 ± 0.04 %ID/g | tissue uptake at 1 h (Seminal uptake): 1.22 ± 0.4 %ID/g | tissue uptake at 4 h (Seminal uptake): 0.49 ± 0.1 %ID/g | tissue uptake at 24 h (Seminal uptake): 0.08 ± 0.02 %ID/g | tissue uptake at 72 h (Seminal uptake): 0.04 ± 0.01 %ID/g | tissue uptake at 120 h (Seminal uptake): 0.02 ± 0.01 %ID/g | tissue uptake at 1 h (Spleen uptake): 1.64 ± 0.83 %ID/g | tissue uptake at 4 h (Spleen uptake): 0.96 ± 0.29 %ID/g | tissue uptake at 24 h (Spleen uptake): 0.45 ± 0.1 %ID/g | tissue uptake at 72 h (Spleen uptake): 0.38 ± 0.15 %ID/g | tissue uptake at 120 h (Spleen uptake): 0.49 ± 0.38 %ID/g | tissue uptake at 1 h (Stomach uptake): 0.59 ± 0.12 %ID/g | tissue uptake at 4 h (Stomach uptake): 0.42 ± 0.15 %ID/g | tissue uptake at 24 h (Stomach uptake): 0.25 ± 0.13 %ID/g | tissue uptake at 72 h (Stomach uptake): 0.28 ± 0.33 %ID/g | tissue uptake at 120 h (Stomach uptake): 0.05 ± 0.08 %ID/g | tissue uptake at 1 h (Tail uptake): 6.11 ± 3.05 %ID/g | tissue uptake at 4 h (Tail uptake): 2.66 ± 0.9 %ID/g | tissue uptake at 24 h (Tail uptake): 0.31 ± 0.06 %ID/g | tissue uptake at 72 h (Tail uptake): 0.19 ± 0.12 %ID/g | tissue uptake at 120 h (Tail uptake): 0.08 ± 0.06 %ID/g | tissue uptake at 1 h (Testes uptake): 2.17 ± 0.32 %ID/g | tissue uptake at 4 h (Testes uptake): 1.83 ± 0.58 %ID/g | tissue uptake at 24 h (Testes uptake): 0.64 ± 0.53 %ID/g | tissue uptake at 72 h (Testes uptake): 0.24 ± 0.04 %ID/g | tissue uptake at 120 h (Testes uptake): 0.14 ± 0.06 %ID/g | tissue uptake at 1 h (Thyroid uptake): 2.9 ± 0.41 %ID/g | tissue uptake at 4 h (Thyroid uptake): 1.62 ± 0.42 %ID/g | tissue uptake at 24 h (Thyroid uptake): 0.37 ± 0.06 %ID/g | tissue uptake at 72 h (Thyroid uptake): 0.15 ± 0.01 %ID/g | tissue uptake at 120 h (Thyroid uptake): 0.08 ± 0.05 %ID/g | tissue uptake at 1 h (Tumor uptake): 27.2 ± 7.55 %ID/g | tissue uptake at 4 h (Tumor uptake): 47.6 ± 13.5 %ID/g | tissue uptake at 24 h (Tumor uptake): 57.2 ± 15.3 %ID/g | tissue uptake at 72 h (Tumor uptake): 59.3 ± 16 %ID/g | tissue uptake at 120 h (Tumor uptake): 61.9 ± 22.3 %ID/g
